Data: PMC6093649

Target: T1, Chp2 chromodomain (recombinant Chp2-CD, wild type) (S. pombe)
T1 sequence (O42934 whole entry, looked up): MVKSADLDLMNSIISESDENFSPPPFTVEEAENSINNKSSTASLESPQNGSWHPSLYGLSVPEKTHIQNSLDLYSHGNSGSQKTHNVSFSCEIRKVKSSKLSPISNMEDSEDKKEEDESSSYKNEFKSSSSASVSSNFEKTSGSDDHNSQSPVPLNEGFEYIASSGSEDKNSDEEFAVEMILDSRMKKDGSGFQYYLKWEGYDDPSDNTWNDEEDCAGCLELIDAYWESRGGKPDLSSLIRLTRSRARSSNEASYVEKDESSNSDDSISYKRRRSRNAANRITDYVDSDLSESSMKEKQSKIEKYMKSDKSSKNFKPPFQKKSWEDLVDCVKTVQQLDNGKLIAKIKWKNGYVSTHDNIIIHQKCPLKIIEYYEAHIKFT
Test: ITC; MicroCal VP-ITC, 20°C; Chp2-CD protein in 20 mM KPO4 pH 6.8, 100 mM NaCl; H3K9me3 peptide injected into the protein in 1-μl aliquots at 3-min intervals

For ARTKQTARKSTGGKAPRY (trimethyl-lysine at position 9 (Lys[Me]3)) [K9-trimethylated histone H3 (H3K9me3) peptide (1–18)], which Kd is on record?
The Kd was 4.37 µM.
